Sequences and labels used below:
B3: Δ1–91 TRMT10C (enzyme, human, UniProt Q7L0Y3 92-403, looked up)
chain: AATREFIEMWRLLGREVPEHITEEELKTLMECVSNTAKKKYLKYLYTKEKVKKARQIKKEMKAAAREEAKNIKLLETTEEDKQKNFLFLRLWDRNMDIAMGWKGAQAMQFGQPLVFDMAYENYMKRKELQNTVSQLLESEGWNRRNVDPFHIYFCNLKIDGALHRELVKRYQEKWDKLLLTSTEKSHVDLFPKDSIIYLTADSPNVMTTFRHDKVYVIGSFVDKSMQPGTSLAKAKRLNLATECLPLDKYLQWEIGNKNLTLDQMIRILLCLKNNGNWQEALQFVPKRKHTGFLEISQHSQEFINRLKKAKT
notes: TRMT10C (MRPP1), human, Δ1–91, used for the structural studies; also called MRPP1

The target of the data set “Δ1–91 TRMT10C” is B3. As to the kind of experiment: cryo-EM structure; mt-RNase Z^Gln: 5–tRNA^Gln–24 first 5′ processed with Δ1–91 TRMT10C–SDR5C1 and Δ1–45 PRORP, then Δ1–31 ELAC2-Asp550Asn added, on ice 60 min; GraFix 10–30% sucrose gradient with 0–0.015% glutaraldehyde, 25 mM Na–HEPES pH 7.5, 20 mM NaCl, 20 μM ZnCl2; pre-mt-tRNA^Gln is part of the complex. As to conditions: both partners purified.

Data set [1] concerns the target T1, ELAC2 (cryo-EM);TRMT10C;SDR5C1 (Homo sapiens;Homo sapiens;Homo sapiens, UniProt Q9BQ52;Q7L0Y3;Q99714 32-826;40-403;1-261, ||).
T1 sequence 1: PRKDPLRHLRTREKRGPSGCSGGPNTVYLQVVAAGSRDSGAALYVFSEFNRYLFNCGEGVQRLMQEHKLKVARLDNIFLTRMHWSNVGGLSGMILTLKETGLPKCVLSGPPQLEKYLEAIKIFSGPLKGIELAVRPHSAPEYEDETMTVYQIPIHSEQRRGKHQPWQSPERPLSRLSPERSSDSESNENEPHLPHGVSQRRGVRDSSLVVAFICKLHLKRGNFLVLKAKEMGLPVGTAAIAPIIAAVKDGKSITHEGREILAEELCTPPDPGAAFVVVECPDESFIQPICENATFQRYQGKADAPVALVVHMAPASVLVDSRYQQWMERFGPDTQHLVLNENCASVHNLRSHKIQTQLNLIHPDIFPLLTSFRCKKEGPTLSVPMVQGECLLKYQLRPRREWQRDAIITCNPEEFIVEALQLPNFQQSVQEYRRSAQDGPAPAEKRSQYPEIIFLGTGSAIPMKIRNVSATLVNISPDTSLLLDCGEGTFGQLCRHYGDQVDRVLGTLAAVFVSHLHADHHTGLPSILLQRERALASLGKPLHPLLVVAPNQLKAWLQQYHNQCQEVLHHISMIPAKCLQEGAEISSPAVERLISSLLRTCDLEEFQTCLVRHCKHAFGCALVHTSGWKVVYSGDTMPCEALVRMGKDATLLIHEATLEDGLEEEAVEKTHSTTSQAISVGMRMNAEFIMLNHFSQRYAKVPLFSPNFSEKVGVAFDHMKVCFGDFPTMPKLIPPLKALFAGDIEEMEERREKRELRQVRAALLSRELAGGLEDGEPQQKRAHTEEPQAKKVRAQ
T1 sequence 2: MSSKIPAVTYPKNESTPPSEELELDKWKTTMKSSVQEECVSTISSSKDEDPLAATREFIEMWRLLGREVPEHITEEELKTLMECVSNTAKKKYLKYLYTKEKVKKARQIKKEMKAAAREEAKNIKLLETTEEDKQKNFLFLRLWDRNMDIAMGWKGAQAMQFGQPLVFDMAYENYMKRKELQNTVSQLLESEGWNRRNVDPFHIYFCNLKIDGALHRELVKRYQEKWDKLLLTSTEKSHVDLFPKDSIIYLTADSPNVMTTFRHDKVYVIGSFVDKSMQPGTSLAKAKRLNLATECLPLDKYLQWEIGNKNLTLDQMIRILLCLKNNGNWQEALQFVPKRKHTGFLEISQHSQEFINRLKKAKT
T1 sequence 3: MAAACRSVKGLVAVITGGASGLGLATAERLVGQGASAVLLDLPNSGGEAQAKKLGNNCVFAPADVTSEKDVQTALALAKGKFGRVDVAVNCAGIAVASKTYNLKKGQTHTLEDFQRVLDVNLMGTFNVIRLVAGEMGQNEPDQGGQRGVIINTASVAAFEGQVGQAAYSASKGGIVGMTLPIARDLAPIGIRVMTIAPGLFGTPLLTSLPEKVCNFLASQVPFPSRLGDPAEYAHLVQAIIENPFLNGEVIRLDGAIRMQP
Description: cryo-EM structure; mt-RNase Z Gln complex (EMD-19455); FA: 20 mM Tris-HCl pH 8, 80 mM NaCl, 40 mM KCl, 3 mM MgCl2, 5% glycerol, 2 mM DTT; 20 nM RNA; 20 min at 20 C, read at room temperature. As to conditions: protein: recombinant;recombinant;recombinant; tags: N-terminal 6xHis-TEV (cleaved);;; copies: 1;1;4; tRNA cloverleaf with canonical elbow.

The target in the next data set is T2, Δ1–31 ELAC2-Asp550Asn (human, UniProt Q9BQ52 32-826, Asp550Asn).
T2 construct: Cloned in the 438-B vector (Addgene plasmid 55219) with an N-terminal 6xHis tag and a TEV site; the tag was removed with TEV protease; also called ELAC2^mut; ELAC2(D550N); source: Hi-Five insect cells (baculovirus), purified (HisTrap, TEV cleavage, heparin, Superdex 200); not shown: 6xHis, N-terminal, cleaved
T2 sequence (looked up): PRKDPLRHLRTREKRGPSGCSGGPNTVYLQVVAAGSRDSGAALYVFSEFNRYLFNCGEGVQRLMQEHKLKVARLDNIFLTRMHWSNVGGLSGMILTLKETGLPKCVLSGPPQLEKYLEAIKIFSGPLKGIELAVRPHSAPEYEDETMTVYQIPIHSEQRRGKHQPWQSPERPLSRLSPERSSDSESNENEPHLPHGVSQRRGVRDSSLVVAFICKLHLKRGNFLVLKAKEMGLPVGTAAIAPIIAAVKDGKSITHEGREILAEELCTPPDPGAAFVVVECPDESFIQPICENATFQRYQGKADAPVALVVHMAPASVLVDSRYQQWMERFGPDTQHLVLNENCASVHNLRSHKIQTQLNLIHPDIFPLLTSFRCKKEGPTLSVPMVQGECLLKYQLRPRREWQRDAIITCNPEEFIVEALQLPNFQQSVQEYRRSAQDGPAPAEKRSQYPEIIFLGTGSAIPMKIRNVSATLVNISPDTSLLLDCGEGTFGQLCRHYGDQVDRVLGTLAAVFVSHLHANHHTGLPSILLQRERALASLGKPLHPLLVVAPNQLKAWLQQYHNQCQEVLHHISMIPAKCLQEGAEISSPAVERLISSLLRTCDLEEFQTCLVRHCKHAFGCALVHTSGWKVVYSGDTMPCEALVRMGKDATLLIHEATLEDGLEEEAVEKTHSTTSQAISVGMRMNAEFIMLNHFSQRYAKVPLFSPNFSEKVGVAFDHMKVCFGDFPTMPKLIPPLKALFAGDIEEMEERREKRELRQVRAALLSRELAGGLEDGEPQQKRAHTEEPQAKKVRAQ
As to the kind of experiment: cryo-EM structure; mt-RNase Z^Gln: 5–tRNA^Gln–24 first 5′ processed with Δ1–91 TRMT10C–SDR5C1 and Δ1–45 PRORP, then Δ1–31 ELAC2-Asp550Asn added, on ice 60 min; GraFix 10–30% sucrose gradient with 0–0.015% glutaraldehyde, 25 mM Na–HEPES pH 7.5, 20 mM NaCl, 20 μM ZnCl2; pre-mt-tRNA^Gln is part of the complex. As to conditions: both partners purified.

These results are taken from article PMC11996679, “Molecular basis of human nuclear and mitochondrial tRNA 3′ processing” (Nature Structural & Molecular Biology, 2024).

B1: SDR5C1 (enzyme, human)
chain: MAAACRSVKGLVAVITGGASGLGLATAERLVGQGASAVLLDLPNSGGEAQAKKLGNNCVFAPADVTSEKDVQTALALAKGKFGRVDVAVNCAGIAVASKTYNLKKGQTHTLEDFQRVLDVNLMGTFNVIRLVAGEMGQNEPDQGGQRGVIINTASVAAFEGQVGQAAYSASKGGIVGMTLPIARDLAPIGIRVMTIAPGLFGTPLLTSLPEKVCNFLASQVPFPSRLGDPAEYAHLVQAIIENPFLNGEVIRLDGAIRMQP
notes: also called MRPP2; HSD17B10
On to B1, for which the binding result with Δ1–91 TRMT10C is “binds”.

B2: 5-tRNAGln-24 Trailer(Tyr) (structured_RNA)
RNA: GGUGAUAGGAUGGGGUGUGAUAGGUGGCACGGAGAAUUUUGGAUUCUCAGGGAUGGGUUCGAUUCUCAUAGUCCUAGGCUCCGAGGUGAUUUUCAAGCUCG
For B2, the binding result in data set [1] is listed as “binds”.
Take B3: the binding result with Δ1–31 ELAC2-Asp550Asn is reported as “binds”.
